These results are taken from patent US20100150902A1 (published 2010).

Experiment [1] deals with T1, human CD151 protein (human, UniProt P48509 1-253).
T1 construct: whole, on cells; in HT-29 cell lysate in the Western blots; also called PETA-3; SFA-1
T1 sequence (looked up): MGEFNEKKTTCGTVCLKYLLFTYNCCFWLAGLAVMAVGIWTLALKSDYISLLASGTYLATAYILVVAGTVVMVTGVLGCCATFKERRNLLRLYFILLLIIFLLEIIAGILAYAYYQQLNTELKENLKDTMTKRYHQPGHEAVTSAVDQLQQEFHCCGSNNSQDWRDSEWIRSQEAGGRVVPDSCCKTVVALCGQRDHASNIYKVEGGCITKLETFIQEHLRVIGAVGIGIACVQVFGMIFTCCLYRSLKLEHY
Nature of the experiment: flow cytometry, 10 µg/ml antibody on A549 cells. Background: A flow cytometer gives signals particle by particle.
Method: (§1) The flow cytometry analyses are carried out on 96-well plates. The undiluted hybridoma supernatants are added to 100000 PC3 cells previously introduced into the wells. After incubation for 20 minutes at +4° C. followed by washing, an Alexa488-labelled goat anti-mouse IgG polyclonal antibody (Molecular Probes, dilution to 1/500) is added. The fluorescence intensity (MFI) is determined with the aid of a cytofluorimeter after further incubation for 20 minutes at +4° C.
(§2) The isotypes of the antibodies produced were determined for each culture supernatant using a murine antibody isotyping kit (SBA clonotyping system, Southern Biotech), and then final characterisation was carried out by ELISA (extracellular loop EC2) and by flow cytometry on the murine line NIH 3T3 and the stable transfectant NIH 3T3-CD151, and then on human tumour lines of lung cancer A549, prostate cancer DU145 and pancreatic cancer BxPC3 under the conditions previously described. The antibody concentration of the supernatants was adjusted to 5 μg/ml for the ELISA and to 10 μg/ml for the flow cytometry analyses.

Experiment [2] concerns the target T1, human CD151 protein. Nature of the experiment: flow cytometry, 10 µg/ml antibody on BxPC3 cells.
Method: as §1, §2
The target of experiment [3] is T1, human CD151 protein. Nature of the experiment: flow cytometry, 10 µg/ml antibody on DU145 cells.
Method: as §1, §2
Experiment [4] has as its target T1, human CD151 protein. Nature of the experiment: flow cytometry, undiluted hybridoma supernatant on PC3 cells.
Method: as §1
Experiment [5] concerns the target T1, human CD151 protein. Put plainly: flow cytometry, 10 µg/ml antibody on NIH3T3-CD151 transfectant cells.
Method: as §1, §2
Experiment [6] concerns the target T2, recombinant extracellular loop EC2 of human CD151 (amino acids 130 to 221, C-terminal Poly-His tail) (human, UniProt P48509 130-221).
T2 construct: range 130-221; Expressed in soluble form in the periplasm of E. coli from pET22b and purified by IMAC; also called recombinant EC2; recombinant EC2 loop; not shown: Poly-His tail at the C-terminal position
T2 sequence (looked up): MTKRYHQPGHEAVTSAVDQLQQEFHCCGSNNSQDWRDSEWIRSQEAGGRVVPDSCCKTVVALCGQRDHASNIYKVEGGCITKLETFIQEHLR
Put plainly: ELISA, clone supernatant at 5 µg/ml antibody on coated recombinant EC2 loop. A general note: ELISA stands for enzyme-linked immunosorbent assay.

The target of experiment [7] is T2, recombinant extracellular loop EC2 of …. Nature of the experiment: ELISA, undiluted hybridoma supernatant on coated recombinant EC2 loop (5 µg/ml).
Method: For the ELISA, 96-well plates are sensitised for 1 night at +4° C. with the recombinant extracellular loop EC2 at 5 μg/ml in PBS. After washing with PBS, the wells are saturated with 0.5% gelatin solution in PBS for 1 hour at 37° C. and then washed again with PBS. The hybridoma culture supernatants are evaluated without dilution (incubation for 1 hour at 37° C.). The antibodies fixed to the immobilised EC2 loop are detected by successive incubation with a peroxidase-conjugated goat anti-mouse IgG polyclonal antibody (Jackson/USA, dilution to 1/5000, 1 hour at 37° C.) and then with a peroxidase substrate (TMB, Interchim/France, 10 minutes at ambient temperature). The reaction is stopped by addition of 1M sulfuric acid and the optical density (OD) is measured at 450 nm.
Experiment [8] deals with T1, human CD151 protein. Nature of the experiment: saturation binding of 125I-labelled antibody to PC3 cells, 1 hour at 4°C, Scatchard analysis.
Method: The affinity of the 2 radiolabelled antibodies for their CD151 target on the cell surface was then measured for PC3 prostate cancer cells. The dissociation constant KD of the antibodies was determined by the method of Scatchard. […] After incubation, the total radioactivity associated with the cells (fixed radiolabelled antibody) was measured using a gamma counter. The non-specific fixing was determined, for each concentration tested, in the presence of an excess of non-radiolabelled antibody (×100). The specific fixing is calculated by subtracting the non-specific radioactivity from the total radioactivity.
Experiment [9] has as its target T2, recombinant extracellular loop EC2 of …. Put plainly: competition ELISA on coated recombinant EC2; competitor murine 214B2 at 80 ng/ml, detected with anti-mouse IgG.
Method: (§3) Briefly, 96-well ELISA plates were coated with recombinant EC2 at 5 μg/ml in PBS overnight at 4° C. […] For control experiments, no murine antibody was added. Horseradish peroxidase-conjugated polyclonal goat anti-mouse IgG was added at a 1/5000 dilution in PBS and incubated for 1 h at 37° C. After incubation with the peroxidase substrate TMB for 10 min at room temperature, the reaction was stopped with 1 M sulfuric acid and the optical density at 450 nm was measured.
Experiment [10] has the same target. Put plainly: competition ELISA on coated recombinant EC2; competitor murine 203B6 at 80 ng/ml, detected with anti-mouse IgG.
Method: as §3

B1: murine monoclonal antibody 214B2 (hybridoma CNCM I-3919) (antibody, mouse IgG1, V domains shown)
VH: QVQLQQPGSVLVRPGASVKLSCKASGYTFTSSSMHWAKQRPGQGLEWIGEIHPNSGNTNNNEKFKGKATLTVDTSSSTAYVDLSSLSSEDSAVYYCARARSFYYAMDCWGQGTSVTVSS
VL: NIVMTQSPKSMSMSVGERVTLSCKASENVGTYVSWYQQKPEQSPKLLIYGASNRYTGVPDRFTGSGSATDFTLTISSVQAEDLADYHCGQTYSFPYTFGGGTKLEIK
notes: also called 214B2 cl1A; [125I]-214B2
For the molecule B1, the MFI was 820 MFI with human CD151 protein [1]; 849 MFI with human CD151 protein [2]; 1330 MFI with human CD151 protein [3]; 1000 MFI with human CD151 protein [4]; 748 MFI with human CD151 protein [5]. For the same molecule, the “OD at 450 nm” value in experiment [6] was determined as 2.48 OD at 450 nm. Also, the “OD 450 nm” value in experiment [7] is 0.684 OD 450 nm. The same molecule registered an equilibrium dissociation constant (Kd) with human CD151 protein [8] of 6.38 nM.

B2: chimeric antibody c214B2[IgG1] (antibody, V domains shown)
VH: QVQLQQPGSVLVRPGASVKLSCKASGYTFTSSSMHWAKQRPGQGLEWIGEIHPNSGNTNNNEKFKGKATLTVDTSSSTAYVDLSSLSSEDSAVYYCARARSFYYAMDCWGQGTSVTVSS
VL: NIVMTQSPKSMSMSVGERVTLSCKASENVGTYVSWYQQKPEQSPKLLIYGASNRYTGVPDRFTGSGSATDFTLTISSVQAEDLADYHCGQTYSFPYTFGGGTKLEIKR
notes: Variable domains of murine 214B2 fused to human Ckappa and human IgG1 constant domains; made in HEK293/EBNA cells; VL' and 'IgG1 Chim
Turning to B2, the IC50 in experiment [9] was found to be 0.69 µg/mL.

B3: murine monoclonal antibody 203B6 (hybridoma CNCM I-3920) (antibody, mouse IgG1, V domains shown)
VH: EVKLVESGGGLVQPGGSLKLSCAASGFTFSTYTMSWVRQTPEKRLEWVAYISSGGGTTYYPDTVKGRFTISRDNARNTLYLQMNSLKSEDTAMYYCATPRIGTGFAYWGQGTLVTVSA
VL: DIVLSQSPASLALSLGQRATISCRASASVEYYGTSLMHWYQQKPGQPPKLLIYEASNVESGVPARFSGSGSGTDFSLNIHPVEEDDLAIYFCQQSRKAPYTFGGGTKLEIK
notes: also called 203B6 cl1A; [125I]-203B6
As for B3, the MFI with human CD151 protein [1] was 675 MFI; with human CD151 protein [2] it was 768 MFI; with human CD151 protein [3], 860 MFI; with human CD151 protein [4], 975 MFI; in the experiment with human CD151 protein [5] it was 540 MFI. For the same molecule, the “OD at 450 nm” value in [6] came out at 2.22 OD at 450 nm. Further, the “OD 450 nm” value in [7] turned out to be 1.13 OD 450 nm. Binding in the experiment with human CD151 protein [8] was put at a Kd of 12.8 nM.

B4: chimeric antibody c203B6[IgG1] (antibody, V domains shown)
VH: EVKLVESGGGLVQPGGSLKLSCAASGFTFSTYTMSWVRQTPEKRLEWVAYISSGGGTTYYPDTVKGRFTISRDNARNTLYLQMNSLKSEDTAMYYCATPRIGTGFAYWGQGTLVTVSA
VL: DIVLSQSPASLALSLGQRATISCRASASVEYYGTSLMHWYQQKPGQPPKLLIYEASNVESGVPARFSGSGSGTDFSLNIHPVEEDDLAIYFCQQSRKAPYTFGGGTKLEIKR
notes: Variable domains of murine 203B6 fused to human Ckappa and human IgG1 constant domains; made in HEK293/EBNA cells; VL' and 'IgG1 Chim
Consider B4, for which the IC50 in experiment [10] worked out at 0.71 µg/mL.

B5: murine monoclonal antibody 211F3 (hybridoma CNCM I-3918) (antibody, mouse IgG1, V domains shown)
VH: EVKLVESGGDLVQPGGSLKLSCAASGFTFSTYTMSWVRQTPEKRLEWVAYISSGGVTTYYPDTIKGRFTISRDNAKNTLFLQMNSLKSEDTAMYYCTSPRTGTGFAYWGQGTLVTVSA
VL: DIVLTQSPASLALSLGQRATISCRASASVDYYGTSLMQWYQQKPGQPPKLLIYEASNVESGVPARFSGSGSGTDFSLNIHPVEEDDLAIYFCQQSRKAPYTFGGGTKLEIK
notes: also called 211F3 cl1A
Take B5: the MFI in the experiment with human CD151 protein [1] turned out to be 481 MFI; with human CD151 protein [2], 536 MFI; with human CD151 protein [3] it was 524 MFI; with human CD151 protein [4], 936 MFI; in the experiment with human CD151 protein [5], 556 MFI. In addition, the “OD at 450 nm” value in [6] was determined as 2.3 OD at 450 nm. Besides, in experiment [7], the “OD 450 nm” value stood at 0.959 OD 450 nm.

B6: murine monoclonal antibody 205H8 (hybridoma CNCM I-3921) (antibody, mouse IgG3, V domains shown)
VH: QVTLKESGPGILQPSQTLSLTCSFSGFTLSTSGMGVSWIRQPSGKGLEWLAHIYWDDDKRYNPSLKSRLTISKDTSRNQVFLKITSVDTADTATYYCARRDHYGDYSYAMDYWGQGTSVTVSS
VL: DIVMTQSQKFMSTSEGDRVSITCKASQNVGIAVAWYQQKPGQSPKLLIYSASNRYTGVPDRFTGSGSGTDFTLTISNMQSEDLADYFCQQYSSNPTFGAGTKLELK
notes: also called 205H8 cl1A
For B6, the MFI with human CD151 protein [1] was determined as 388 MFI; in the experiment with human CD151 protein [2] it was 350 MFI; with human CD151 protein [3] it was 584 MFI; in the experiment with human CD151 protein [4], 595 MFI; with human CD151 protein [5] it was 332 MFI. Moreover, the “OD at 450 nm” value in experiment [6] was determined as 1.84 OD at 450 nm. The “OD 450 nm” value in [7] was found to be 0.649 OD 450 nm.

By Kd is commonly meant the free concentration of one partner at which half of the binding sites on the other are occupied at equilibrium, for simple one-to-one binding. A low value points to tighter binding. One may read the IC50 as the midpoint of a concentration-inhibition curve.
